Source: patent publication US20240084003A1 (SIMCERE ZAIMING PHARMACEUTICAL, published 2024)

Key:
[1] = target: T1, human CD22 domain1-4-His (human, UniProt P20273 20-425); experiment: ELISA, plate coated with human CD22 domain1-4-His
T1 construct: also called hCD22 domain1-4-His; not shown: His tag
T1 sequence: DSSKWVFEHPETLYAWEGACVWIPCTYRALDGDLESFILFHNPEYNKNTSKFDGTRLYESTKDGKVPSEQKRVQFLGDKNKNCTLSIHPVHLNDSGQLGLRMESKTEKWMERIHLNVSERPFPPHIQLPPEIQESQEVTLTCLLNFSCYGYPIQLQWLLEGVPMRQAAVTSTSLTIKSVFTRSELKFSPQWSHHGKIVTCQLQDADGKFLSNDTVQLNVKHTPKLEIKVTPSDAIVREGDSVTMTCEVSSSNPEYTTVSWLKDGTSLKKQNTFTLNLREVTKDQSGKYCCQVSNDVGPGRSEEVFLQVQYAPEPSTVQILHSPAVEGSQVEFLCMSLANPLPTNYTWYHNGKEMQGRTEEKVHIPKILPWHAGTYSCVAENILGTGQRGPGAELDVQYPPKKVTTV

[2] = target: T2, human CD22-ECD-His protein (human, UniProt P20273 20-687); experiment: SPR (Biacore), antibody captured on Protein A chip, CD22-ECD-His in solution
T2 construct: Recombinant, from HEK293E cells; also called hCD22-ECD-His; human CD22-His protein; not shown: His tag
T2 sequence: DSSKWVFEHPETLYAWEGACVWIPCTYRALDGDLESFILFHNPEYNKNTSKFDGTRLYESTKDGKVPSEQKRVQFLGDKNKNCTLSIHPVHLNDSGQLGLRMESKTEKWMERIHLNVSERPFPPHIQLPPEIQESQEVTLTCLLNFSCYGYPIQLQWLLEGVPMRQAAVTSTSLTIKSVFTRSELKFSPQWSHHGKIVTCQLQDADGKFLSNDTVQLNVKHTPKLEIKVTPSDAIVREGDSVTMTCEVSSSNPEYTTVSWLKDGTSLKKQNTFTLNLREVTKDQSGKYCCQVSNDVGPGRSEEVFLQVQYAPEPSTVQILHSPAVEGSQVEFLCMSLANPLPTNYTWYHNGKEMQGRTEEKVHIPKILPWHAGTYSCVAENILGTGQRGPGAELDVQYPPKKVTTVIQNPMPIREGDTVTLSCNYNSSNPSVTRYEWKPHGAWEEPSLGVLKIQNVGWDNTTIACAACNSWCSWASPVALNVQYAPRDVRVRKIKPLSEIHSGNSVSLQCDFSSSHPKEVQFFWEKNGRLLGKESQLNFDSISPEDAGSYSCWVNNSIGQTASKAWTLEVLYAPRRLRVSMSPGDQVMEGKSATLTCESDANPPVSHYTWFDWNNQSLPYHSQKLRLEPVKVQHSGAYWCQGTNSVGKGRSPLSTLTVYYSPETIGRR
Procedure, shortened: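 Antibody captured on Protein A chip, then human CD22-ECD-His injected for 240 s at 30 μL/min, 5 concentrations from 200 nM (1:1 dilution), dissociation up to 600 s, in HBS-EP+ at 25° C. Responses double-referenced; apparent KD and kinetic constants fitted to a Langmuir 1:1 model.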

[3] = target: T3, rhesus monkey CD22-ECD-His protein (rhesus monkey, UniProt H9G1X2 18-686); experiment: SPR (Biacore), antibody captured on Protein A chip, rhesus CD22 in solution
T3 construct: extracellular domain; also called monkey CD22 protein
T3 sequence: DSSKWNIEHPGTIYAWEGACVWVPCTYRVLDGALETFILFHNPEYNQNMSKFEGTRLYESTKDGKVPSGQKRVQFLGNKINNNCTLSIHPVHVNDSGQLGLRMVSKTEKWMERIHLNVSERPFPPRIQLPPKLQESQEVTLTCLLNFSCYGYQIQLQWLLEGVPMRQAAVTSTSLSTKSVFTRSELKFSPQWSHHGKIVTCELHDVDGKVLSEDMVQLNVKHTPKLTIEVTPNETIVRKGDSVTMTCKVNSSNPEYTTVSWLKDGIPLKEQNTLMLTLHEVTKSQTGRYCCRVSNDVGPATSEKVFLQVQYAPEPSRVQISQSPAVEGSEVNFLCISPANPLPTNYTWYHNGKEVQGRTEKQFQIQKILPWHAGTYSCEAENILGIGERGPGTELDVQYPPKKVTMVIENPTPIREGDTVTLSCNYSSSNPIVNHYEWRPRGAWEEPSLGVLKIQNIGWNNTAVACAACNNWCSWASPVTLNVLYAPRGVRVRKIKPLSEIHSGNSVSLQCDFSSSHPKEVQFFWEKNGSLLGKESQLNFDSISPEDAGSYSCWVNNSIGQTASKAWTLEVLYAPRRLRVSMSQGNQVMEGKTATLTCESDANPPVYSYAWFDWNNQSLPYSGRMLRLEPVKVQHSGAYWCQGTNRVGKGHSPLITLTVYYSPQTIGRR

B1: F1.105.11 (antibody, human IgG1, kappa, V domains shown)
VH: EVQLQQSGPVLVKPGASVKMSCKASGYTFSDYFMNWVKQSHGKSLEWIGIINSYSGGTSYNQKFKGKATLTVDKSSSTAYMELNSLTSEDSAVYYCARWMDYWGQGTSVTVSS
VL: DVQITQSPSYLAASPGETITINCRTSESISKHLAWYQEKPGKTNKLLIYSGSTLQSGIPSRFSGSGSGTDFTLTISSLEPEDFAMYYCQQHNEYPWTFGGGTKLEIKR
notes: Chimeric IgG1 kappa
**Q.** Does B1 bind [1]?
**A.** no binding

**Q.** What about the Kd [2] of the same binder?
**A.** 0.000514 µM

**Q.** And the koff [2]?
**A.** 0.000154 s⁻¹

**Q.** What about the kon [2] of the same binder?
**A.** 299000 M⁻¹ s⁻¹

**Q.** And the Kd [3]?
**A.** 0.0173 µM

**Q.** What about the koff [3] of the same binder?
**A.** 0.000448 s⁻¹

**Q.** And the kon [3]?
**A.** 25900 M⁻¹ s⁻¹

B2: F1.192.1 (antibody, human IgG1, kappa, V domains shown)
VH: AVQLQQSGVELVRPGASVKLSCTGSDFNIKEDYIHWVKQRPEQGLEWIGWIDPENGDTEYASKFQGKATITADTSSNTAYLQLSSLTSEDTAVYYCATYGSLDYWGQGTTLTVSS
VL: DIKMTQSPSSMYAFLGERVTITCKASQGINSFLTWFQQKPGKSPKTLIYRANRLVDGVPSRFSGSGSGQDYSLTISSLEYEDVGIYYCLQYDEFPRTFGGGTKLEIKR
notes: Chimeric IgG1 kappa
**Q.** Which results are given for B2?
**A.** binding result [1]: no binding; Kd [2]: 0.00108 µM; koff [2]: 0.000244 s⁻¹; kon [2]: 225000 M⁻¹ s⁻¹; Kd [3]: 0.0231 µM; koff [3]: 0.0016 s⁻¹; kon [3]: 69200 M⁻¹ s⁻¹

B3: F1.200.11 (antibody, human IgG1, kappa, V domains shown)
VH: QNQLVQSGPELKKPGETVKISCKASGYTFTTAGMQWVQKMPGKGFKWIGWINTLSGEPKYAEDFKGRFAFSLETSATTAYLQISNLKNEDTATYFCARAYYSNLYWYFDVWGTGTTVTVSS
VL: DIVMTQSQKFMSTTVGDRVTITCKASQNVVTAVAWYQQKPGQSPKVLIYSASNRYSGVPDRFTGSGSGTDFTLTISNMHSEDLANYFCHQYSSYPFTFGSGTKLEIKR
notes: Chimeric IgG1 kappa
**Q.** Does B3 bind [1]?
**A.** no binding

**Q.** And the Kd [2]?
**A.** 0.102 µM

**Q.** And the koff [2]?
**A.** 0.00102 s⁻¹

**Q.** What about the kon [2] of the same binder?
**A.** 9980 M⁻¹ s⁻¹

**Q.** What about the Kd [3] of the same binder?
**A.** 0.0442 µM

**Q.** What about the koff [3] of the same binder?
**A.** 0.000596 s⁻¹

**Q.** What about the kon [3] of the same binder?
**A.** 13500 M⁻¹ s⁻¹

B4: F2.151.13 (antibody, human IgG1, lambda, V domains shown)
VH: QVHLQQPGTELMKPGASVKLSCKATGYTFRDYWLEWVKQRPGHGLEWIGEILPGSGNAYYNEKFKGKATFTADTSSNTAYMQLSSLTTEDSAIYYCARVYSNWYFDAWGKGTTVTVSS
VL: QAVVTQESALTTSPGETVTLTCRSSTGAVTTSNYANWVQEKPDHLFTGLIGGTNNQAPGVPARFSGSLIGDKAALTISGAQTEDEAIYFCALWFSNHWVFGGGTKLTVLG
notes: Chimeric IgG1 lambda
**Q.** Which results are given for B4?
**A.** binding result [1]: no binding; Kd [2]: 0.0227 µM; koff [2]: 0.000533 s⁻¹; kon [2]: 23500 M⁻¹ s⁻¹; Kd [3]: 0.0275 µM; koff [3]: 0.000528 s⁻¹; kon [3]: 19200 M⁻¹ s⁻¹
